The target of experiment [1] is C_(γ2-3) chain (Fc fragment containing the hinge region) (human). Kind of experiment: non-reducing SDS-PAGE with immunoblot; culture supernatants of HEK293 transfectants 48 h after transfection; 4-20% gels, reducing and non-reducing; probed with anti-human IgG-Fc and anti-human Cκ; covalent assembly. (In general: In western blotting, separated proteins are transferred to a membrane and probed.)

Experiment [2] concerns the target Cκ chain (Vκ-deleted human kappa light chain) (human) (UniProt P01834). Kind of experiment: non-reducing SDS-PAGE with immunoblot; culture supernatants of HEK293-BiP cells transfected with LCs alone, 48 h after transfection; reducing and non-reducing gels.
Experiment [3] concerns the target C_(γ1-3) chain (VH-deleted human IgG1 heavy chain) (human). Kind of experiment: non-reducing SDS-PAGE with immunoblot; culture supernatants of HEK293 transfectants 48 h after transfection; 4-20% gels, reducing and non-reducing; probed with anti-human IgG-Fc and anti-human Cκ; covalent assembly.

From paper PMC11096469 come the findings set out here.

As a reminder, the stoichiometry N is the number of molecules, sites or subunits per partner or assembly.

In experiment [1], “C_(γ2-3) chain (Fc fragment containing the hinge region) (domain or fragment)” yielded a stoichiometry N of 2.
In the case of “Cκ chain (Vκ-deleted human kappa light chain) (from UniProt P01834 1-107) (domain or fragment)”, in experiment [2], the stoichiometry N came out at 2.
Substance “C_(γ1-3) chain (VH-deleted human IgG1 heavy chain) (domain or fragment)” displayed a stoichiometry N in experiment [3] of 2.
